Bridges are numbered along the chain shown (N, C = ends). [ ]: non-standard residue; d: D form. Aph(Hor) = 4-amino-phenylalanine(L-hydroorotic acid); dPhe(4-NHCONH2) = NC(=O)Nc1ccc(C[C@@H](N)C(=O)O)cc1; Cpa = not defined here; Ahx = NCCCCCC(=O)O
What follows are binders tested against somatostatin receptor type 2 (SST2) (Homo sapiens, UniProt P30874) (assay: saturation binding of radioligand on HEK-SST2 cell membranes).
Chain of somatostatin receptor type 2 (SST2) (P30874 whole entry): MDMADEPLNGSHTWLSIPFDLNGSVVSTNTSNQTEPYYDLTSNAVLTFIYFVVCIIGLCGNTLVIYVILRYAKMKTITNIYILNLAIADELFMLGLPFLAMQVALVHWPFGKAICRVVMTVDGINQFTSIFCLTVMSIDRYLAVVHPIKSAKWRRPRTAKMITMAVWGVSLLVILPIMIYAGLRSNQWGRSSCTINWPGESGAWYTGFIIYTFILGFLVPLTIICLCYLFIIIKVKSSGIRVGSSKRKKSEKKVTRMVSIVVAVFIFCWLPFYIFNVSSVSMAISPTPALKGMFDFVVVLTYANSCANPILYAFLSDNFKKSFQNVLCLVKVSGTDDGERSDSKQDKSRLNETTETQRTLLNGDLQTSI

Row | Binder | Kd [nM]
1 | {(99mTc)Tc‑HYNIC/EDDA-Ahx-Cpa}-[dC]Y[dW]KTC[dY]-NH2 (disulfide 1-6 (inferred); reading uncertain; also: 99mTc complex, EDDA coligand) [[99mTc]Tc-HYNIC-Ahx-SS01] | 1.6
2 | {(99mTc)Tc‑HYNIC/EDDA-Ahx-Cpa}-[dC][Aph(Hor)][dPhe(4-NHCONH2)]KTC[dY]-NH2 (disulfide 1-6 (inferred); reading uncertain; also: 99mTc complex, EDDA coligand, printed as Cpa-c(dCys-Aph(Hor)-dAph(Cbm)-Lys-Thr-Cys)-dTyr-NH2) [[99mTc]Tc-HYNIC-Ahx-JR11] | 0.85

Further binders by falling Kd, results first:

Row | Kd [nM] | Binder
3 | 0.92 | {(99mTc)Tc‑N4-Cpa}-[dC]Y[dW]KTC[dY]-NH2 (disulfide 1-6 (inferred); reading uncertain; also: 99mTc complex) [[99mTc]Tc-N4-SS01]
4 | 0.6 | {(99mTc)Tc‑N4-Cpa}-[dC][Aph(Hor)][dPhe(4-NHCONH2)]KTC[dY]-NH2 (disulfide 1-6 (inferred); reading uncertain; also: 99mTc complex, printed as Cpa-c(dCys-Aph(Hor)-dAph(Cbm)-Lys-Thr-Cys)-dTyr-NH2) [[99mTc]Tc-N4-JR11]
